The source of these data is patent US20170137467A1.

One assay has as its target T1, BC2T K4E (human).
T1 sequence (peptide, N-terminal acetyl, C-terminal amide): PDREAAVSHWQQ
As to the kind of experiment: library pulldown, LC-MS of supernatant; ratio vs GFP-Nb control (0=captured, 1=not captured).

For another assay, the target named is T2, BC2T S8K.
T2 sequence (peptide, N-terminal acetyl; C-terminal amide): PDRKAAVKHWQQ
As to the kind of experiment: positional peptide library pulldown on immobilised Nb, LC-MS of supernatant; signal ratio to control GFP-Nb (1 = not captured, near 0 = captured).

For the next assay, the target named is T3, BC2T Q11P.
T3 sequence (peptide, N-terminal acetyl; C-terminal amide): PDRKAAVSHWPQ
Described as above.

The next assay has as its target T4, BC2T S8D.
T4 sequence (peptide, N-terminal acetyl; C-terminal amide): PDRKAAVDHWQQ
Described as above.

The target of assay [1] is mCherry tagged with the improved BC2T variations. In words: capture on the BC2 nanotrap, SDS-PAGE and Coomassie, FIG. 19a.
The target of another assay is T5, BC2T R3Q.
T5 sequence (peptide, N-terminal acetyl; C-terminal amide): PDQKAAVSHWQQ
In words: positional peptide library pulldown on immobilised Nb, LC-MS of supernatant; signal ratio to control GFP-Nb (1 = not captured, near 0 = captured).

For another assay, the target named is T6, BC2T R3S.
T6 sequence (peptide, N-terminal acetyl; C-terminal amide): PDSKAAVSHWQQ
Described as above.

Substitutions are numbered along the chain they refer to. Where only a bound is given, the exact number is not on record here.

B1: BC2-NbR106S (VHH, not shown: small tags and cut ends)
VHH: QVQLVESGGGLVQPGGSLTLSCTASGFTLDHYDIGWFRQAPGKEREGVSCINNSDDDTYYADSVKGRFTIFMDNAKDTVYLQMNSLKPEDTAIYYCAEARGCKRGSYEYDFWGQGTQVTVSS
For B1, in the assay with BC2T K4E (human), the ratio came out at 0.9.

B2: BC2 nanobody (VHH, not shown: small tags and cut ends)
VHH: B1 VHH with S106R
Consider B2, for which the ratio with BC2T S8K is 0.8; with BC2T Q11P it was 0.6; in the assay with BC2T S8D, 0.8. In assay [1], this molecule had a percent protein bound of under 100%.

B3: BC2-NbR106E (VHH)
VHH: B1 VHH with S106E
B3: the ratio in the assay with BC2T R3Q and in the assay with BC2T R3S was 0.8 each time.
